Values quoted from earlier work in publication PMC9691366, “Modulating the pharmacokinetic profile of Actinium-225-labeled macropa-derived radioconjugates by dual targeting of PSMA and albumin” (Theranostics, 2022).

Tested on: tumor
Conditions: in vivo, 24 h; cited from earlier work

Q: With [^177Lu]Lu-PSMA-617 as the substance, how does the tumor uptake read?
A: 11.20 ± 4.17 %ID/g
